Assay [1] addresses PP1 (Homo sapiens) (UniProt P62136). The note with it: cited from earlier work.
Assay [2] shares this target. The settings on record: cited from earlier work. The source holds these as a separate data set.
For assay [3] the target is unchanged. The settings on record: cited from earlier work. The source holds these as a separate data set.
The target in assay [4] is Recombinant purified α-isoform of mammalian PP1 (residues 1–330), tag cleaved (mammalian) (UniProt P62136). Nature of the assay: SPR; Biacore 3000; PP1 covalently coupled to a CM5 chip; Rif1 CRI, mutants and peptide injected at 20 µl/min in 10 mM Tris-HCl pH 7.5, 250 mM NaCl, 1 mM DTT, 2 mM MnCl2, 0.005% Tween 20; 1:1 binding model. Background: In SPR one partner is held on a chip, and binding of the other changes the refractive index at the surface.
Sequence of Recombinant purified α-isoform of mammalian PP1 (residues 1–330), tag cleaved (mammalian) (P62136 whole entry, the tested form may be a part, canonical isoform): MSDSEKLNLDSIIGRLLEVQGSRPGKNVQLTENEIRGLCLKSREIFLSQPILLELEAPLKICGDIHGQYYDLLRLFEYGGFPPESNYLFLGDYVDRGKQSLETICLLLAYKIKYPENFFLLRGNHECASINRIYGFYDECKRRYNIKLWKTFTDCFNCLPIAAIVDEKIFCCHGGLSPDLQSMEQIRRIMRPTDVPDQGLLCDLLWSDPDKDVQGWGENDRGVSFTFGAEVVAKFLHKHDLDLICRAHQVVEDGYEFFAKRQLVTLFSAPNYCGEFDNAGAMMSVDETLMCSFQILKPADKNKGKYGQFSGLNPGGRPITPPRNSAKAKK

The target in assay [5] is PP1 (Homo sapiens) (UniProt P62136). The note with it: cited from earlier work. This is another data set of the same source.
Sequence of PP1 (Homo sapiens) (P62136 2-330): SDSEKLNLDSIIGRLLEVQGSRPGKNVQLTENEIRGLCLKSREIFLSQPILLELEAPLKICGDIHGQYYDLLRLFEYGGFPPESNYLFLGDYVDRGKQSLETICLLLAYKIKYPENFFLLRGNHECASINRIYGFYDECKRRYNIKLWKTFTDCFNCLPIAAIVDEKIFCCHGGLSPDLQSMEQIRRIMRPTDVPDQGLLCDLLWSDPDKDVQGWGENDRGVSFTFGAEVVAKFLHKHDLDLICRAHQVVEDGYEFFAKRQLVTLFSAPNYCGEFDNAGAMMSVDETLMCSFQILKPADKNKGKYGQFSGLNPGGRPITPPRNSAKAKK

Where two headings read alike, the source gives them in different places.

The Kd is the equilibrium constant for the complex coming apart.

Sequence of GADD34 (O75807 whole entry): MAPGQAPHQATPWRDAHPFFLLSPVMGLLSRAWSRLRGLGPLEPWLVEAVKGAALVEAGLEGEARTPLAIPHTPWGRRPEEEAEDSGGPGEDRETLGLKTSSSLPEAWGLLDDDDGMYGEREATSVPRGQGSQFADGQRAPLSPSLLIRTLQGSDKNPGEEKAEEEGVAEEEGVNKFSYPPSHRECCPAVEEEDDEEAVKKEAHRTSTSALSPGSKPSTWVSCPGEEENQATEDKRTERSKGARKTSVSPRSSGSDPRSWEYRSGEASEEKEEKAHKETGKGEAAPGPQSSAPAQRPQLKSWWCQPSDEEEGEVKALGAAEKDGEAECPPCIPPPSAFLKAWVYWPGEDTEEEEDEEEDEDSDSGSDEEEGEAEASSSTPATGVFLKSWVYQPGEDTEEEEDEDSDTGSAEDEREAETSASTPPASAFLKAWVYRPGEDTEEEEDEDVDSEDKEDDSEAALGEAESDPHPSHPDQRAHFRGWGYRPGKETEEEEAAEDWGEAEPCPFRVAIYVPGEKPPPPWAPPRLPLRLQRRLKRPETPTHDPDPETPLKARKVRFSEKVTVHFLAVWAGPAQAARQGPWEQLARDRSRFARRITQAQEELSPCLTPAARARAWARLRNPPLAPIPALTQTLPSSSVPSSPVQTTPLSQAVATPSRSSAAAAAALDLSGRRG
Sequence of spinophilin (O35274 417-494): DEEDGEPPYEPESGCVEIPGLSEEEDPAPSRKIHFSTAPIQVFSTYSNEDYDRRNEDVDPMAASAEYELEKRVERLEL
Sequence of NIPP1 (Q12972 whole entry): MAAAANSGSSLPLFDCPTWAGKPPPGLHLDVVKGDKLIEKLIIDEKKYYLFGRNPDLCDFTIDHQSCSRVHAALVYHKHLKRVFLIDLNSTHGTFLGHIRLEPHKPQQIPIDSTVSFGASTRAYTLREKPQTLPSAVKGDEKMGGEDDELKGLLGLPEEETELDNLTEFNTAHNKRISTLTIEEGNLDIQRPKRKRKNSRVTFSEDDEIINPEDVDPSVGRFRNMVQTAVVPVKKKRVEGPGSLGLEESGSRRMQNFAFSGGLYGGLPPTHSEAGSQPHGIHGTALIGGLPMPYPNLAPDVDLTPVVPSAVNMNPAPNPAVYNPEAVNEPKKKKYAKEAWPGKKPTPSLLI
Sequence of PNUTS (Q96QC0 whole entry): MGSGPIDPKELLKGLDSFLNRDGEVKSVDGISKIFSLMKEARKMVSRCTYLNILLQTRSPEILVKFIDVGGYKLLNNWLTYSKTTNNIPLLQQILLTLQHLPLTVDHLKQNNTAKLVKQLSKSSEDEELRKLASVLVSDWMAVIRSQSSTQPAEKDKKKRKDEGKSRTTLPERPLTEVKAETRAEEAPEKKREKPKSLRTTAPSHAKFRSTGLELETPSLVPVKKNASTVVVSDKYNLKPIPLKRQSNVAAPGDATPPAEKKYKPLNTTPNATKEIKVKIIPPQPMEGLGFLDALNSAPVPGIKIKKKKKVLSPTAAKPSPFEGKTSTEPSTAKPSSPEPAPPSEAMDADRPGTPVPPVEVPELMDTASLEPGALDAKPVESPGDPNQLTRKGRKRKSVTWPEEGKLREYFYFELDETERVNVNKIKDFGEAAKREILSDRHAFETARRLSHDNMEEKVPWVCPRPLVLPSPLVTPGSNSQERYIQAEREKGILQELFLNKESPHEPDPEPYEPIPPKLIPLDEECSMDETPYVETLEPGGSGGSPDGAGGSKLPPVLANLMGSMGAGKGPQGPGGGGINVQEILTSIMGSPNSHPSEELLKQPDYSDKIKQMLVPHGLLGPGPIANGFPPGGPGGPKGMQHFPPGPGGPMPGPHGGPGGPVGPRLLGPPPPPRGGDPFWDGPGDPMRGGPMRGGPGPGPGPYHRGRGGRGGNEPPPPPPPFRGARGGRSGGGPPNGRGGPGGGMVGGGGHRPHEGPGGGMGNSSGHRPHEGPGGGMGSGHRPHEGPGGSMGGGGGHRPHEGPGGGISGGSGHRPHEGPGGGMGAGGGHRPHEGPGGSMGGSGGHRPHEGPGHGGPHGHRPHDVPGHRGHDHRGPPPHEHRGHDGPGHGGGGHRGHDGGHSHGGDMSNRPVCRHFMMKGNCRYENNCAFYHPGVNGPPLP

Consider NIPP1 (from UniProt Q12972), for which, in the assay with PP1 (Homo sapiens) [1], the Kd was 73 nM. Consider PNUTS (from UniProt Q96QC0), for which, in the assay with PP1 (Homo sapiens) [2], the Kd was 8.7 nM.

As to spinophilin (from UniProt O35274), the Kd in the assay with PP1 (Homo sapiens) [3] is 9.3 nM. On to “Rif1 CRI (2093–2190) RVSF to RVSA (from UniProt Q6PR54 2093-2190) (domain or fragment)”, for which the affinity as percent of the wild-type interaction in assay [4] is less than 0.1%. On to “Rif1 CRI (2093–2190) RVSF to RASF (from UniProt Q6PR54 2093-2190) (domain or fragment)”, for which the fold decrease in affinity against wild type in assay [4] amounted to 20 fold. Consider “Rif1 CRI (2093–2190) SILK to SAAA (from UniProt Q6PR54 2093-2190) (domain or fragment)”, for which the fold decrease in affinity against wild type in assay [4] worked out at 20 fold. With GADD34 (from UniProt O75807), the Kd with PP1 (Homo sapiens) [5] is 62 nM.

The record behind these values is paper PMC5437018.
